Experimental data reported in patent US20050037969A1 (ARBOR VITA, published 2005).
Ends that are not written are not given here. * marks the point of attachment. Biotin = O=C1N[C@H]2[C@H](CS[C@H]2CCCCC(=O)*)N1

T1: GST-DLG5 (p-dlg) PDZ domain fusion protein (Human, UniProt Q8TDM6 1343-1583)
T1 construct: also called Human discs large protein p-dlg; not shown: glutathione S-transferase encoded by vector pGEX-3X (Pharmacia)
T1 sequence: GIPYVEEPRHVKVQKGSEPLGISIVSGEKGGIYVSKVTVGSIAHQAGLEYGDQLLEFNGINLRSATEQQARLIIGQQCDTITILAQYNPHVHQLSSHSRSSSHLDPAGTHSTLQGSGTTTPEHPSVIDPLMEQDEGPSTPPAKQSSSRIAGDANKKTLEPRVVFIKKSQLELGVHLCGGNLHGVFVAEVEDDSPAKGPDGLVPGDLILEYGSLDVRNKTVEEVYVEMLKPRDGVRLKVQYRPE

T2: K559 PDZ-GST fusion protein (Homo sapiens (Human), UniProt Q9Y6V0 4489-4593)
T2 construct: Order of GST and PDZ part and limits not seen in the excerpts
T2 sequence: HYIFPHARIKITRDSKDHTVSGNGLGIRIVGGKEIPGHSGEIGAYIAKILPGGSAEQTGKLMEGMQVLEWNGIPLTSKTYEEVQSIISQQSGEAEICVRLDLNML

T3: GST-KIAA0303 PDZ domain fusion protein (Homo sapiens (Human), UniProt O15021 1138-1228)
T3 construct: also called K303; not shown: glutathione S-transferase encoded by vector pGEX-3X (Pharmacia)
T3 sequence: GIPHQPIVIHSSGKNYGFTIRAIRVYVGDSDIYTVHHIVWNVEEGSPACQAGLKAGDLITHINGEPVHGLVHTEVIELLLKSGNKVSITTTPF

T4: GST-DVL1 PDZ domain fusion protein (human, UniProt O14640 247-339)
T4 construct: also called human dishevelled segment polarity protein homolog; not shown: glutathione S-transferase encoded by vector pGEX-3X (Pharmacia)
T4 sequence: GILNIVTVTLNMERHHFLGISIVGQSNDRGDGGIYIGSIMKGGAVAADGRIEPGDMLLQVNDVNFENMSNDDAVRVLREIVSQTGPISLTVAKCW

T5: TAX-IP33 PDZ-GST fusion protein (Homo sapiens (Human), UniProt O14910 103-193)
T5 construct: Order of GST and PDZ part and limits not seen in the excerpts
T5 sequence: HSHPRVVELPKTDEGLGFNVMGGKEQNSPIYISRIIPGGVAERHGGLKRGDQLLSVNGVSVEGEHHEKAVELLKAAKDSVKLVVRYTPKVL

T6: GST-PDZK1 fusion protein (PDZ domains 2-4) (Homo sapiens, UniProt Q5T2W1 134-457)
T6 construct: not shown: glutathione S-transferase encoded by vector pGEX-3X (Pharmacia)
T6 sequence: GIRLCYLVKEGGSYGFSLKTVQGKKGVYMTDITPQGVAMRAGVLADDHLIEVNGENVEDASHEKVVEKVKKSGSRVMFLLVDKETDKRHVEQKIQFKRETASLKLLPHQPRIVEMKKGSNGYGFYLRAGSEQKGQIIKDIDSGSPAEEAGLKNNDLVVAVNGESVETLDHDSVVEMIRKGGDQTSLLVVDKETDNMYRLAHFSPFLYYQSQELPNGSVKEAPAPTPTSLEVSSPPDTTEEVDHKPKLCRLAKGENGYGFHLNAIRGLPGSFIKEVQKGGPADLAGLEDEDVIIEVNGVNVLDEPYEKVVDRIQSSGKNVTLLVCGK

T7: GEF PDZ-GST fusion protein (Homo sapiens (Human), UniProt Q8TEU7 293-400)
T7 construct: The label GEF is not explained in the excerpts
T7 sequence: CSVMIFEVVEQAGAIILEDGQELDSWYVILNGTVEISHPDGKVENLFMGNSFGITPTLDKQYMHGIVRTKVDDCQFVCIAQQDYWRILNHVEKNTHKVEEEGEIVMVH

T8: TAX-IP2L PDZ-GST fusion protein (Homo sapiens (Human), UniProt Q8TF64 107-197)
T8 construct: Order of GST and PDZ part and limits not seen in the excerpts
T8 sequence: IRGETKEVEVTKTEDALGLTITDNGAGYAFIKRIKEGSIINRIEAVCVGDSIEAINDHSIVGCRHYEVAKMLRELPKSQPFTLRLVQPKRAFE

T9: GST-LIM protein PDZ domain fusion protein (Human, UniProt Q96HC4 2-85)
T9 construct: also called Human LIM protein; not shown: glutathione S-transferase encoded by vector pGEX-3X (Pharmacia)
T9 sequence: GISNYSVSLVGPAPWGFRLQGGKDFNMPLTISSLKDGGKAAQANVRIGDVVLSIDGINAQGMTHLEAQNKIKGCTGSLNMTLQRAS

T10: GST-TAX-IP40 PDZ domain fusion protein (human, UniProt Q6B4M5 150-252 (rat entry))
T10 construct: also called TAX40; not shown: glutathione S-transferase encoded by vector pGEX-3X (Pharmacia)
T10 sequence: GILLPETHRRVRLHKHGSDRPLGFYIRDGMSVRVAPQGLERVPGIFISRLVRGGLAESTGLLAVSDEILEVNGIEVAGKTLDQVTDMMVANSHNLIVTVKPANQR

T11: MINT3 PDZ-GST fusion protein
T11 construct: Order of GST and PDZ part and limits not seen in the excerpts
T11 chain: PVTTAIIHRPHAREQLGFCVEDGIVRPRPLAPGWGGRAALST

T12: KIAA0807 (PDZ domain)-GST fusion protein (human, UniProt Q6P0Q8 1104-1192)
T12 construct: also called K807; KIAA807; not shown: glutathione S-transferase encoded by vector pGEX-3X (Pharmacia)
T12 sequence: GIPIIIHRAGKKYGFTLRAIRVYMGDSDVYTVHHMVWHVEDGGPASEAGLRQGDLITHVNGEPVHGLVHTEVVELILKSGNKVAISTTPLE

B1: CD62E C-terminal peptide AA48L (peptide)
peptide: Biotin-SSSQSLESDGSYQKPSYIL
notes: Only the last four residues are seen in the excerpts
B2: CDW125 (IL5R) C-terminal peptide AA28L, biotinylated (peptide)
peptide: Biotin-EVICYIEKPGVETLEDSVF
B3: Clasp-2 C-terminal peptide AA2L, biotinylated (peptide)
peptide: Biotin-ISGTPTSTMVHGMTSSSSVV
B4: CD49F C-terminal peptide AA12L, biotinylated (peptide)
peptide: Biotin-HKAEIHAQPSDKERLTSDA
notes: also called CD49F (Aform, alpha6)

Biological target: T1, GST-DLG5 (p-dlg) PDZ domain fusion …
Assay: A/G assays

binding result	Binder
no binding	B1
no binding	B2
no binding	B3
no binding	B4

Biological target: T2, K559 PDZ-GST fusion protein
Assay: A/G assays

binding result	Binder
no binding	B1
no binding	B2
no binding	B3
no binding	B4

Biological target: T3, GST-KIAA0303 PDZ domain fusion protein
Assay: A/G assays

binding result	Binder
no binding	B1
no binding	B2
no binding	B3
no binding	B4

Biological target: T4, GST-DVL1 PDZ domain fusion protein
Assay: A/G assays

binding result	Binder
no binding	B1
no binding	B2
no binding	B3
no binding	B4

Biological target: T5, TAX-IP33 PDZ-GST fusion protein
Assay: A/G assays

binding result	Binder
no binding	B1
no binding	B2
no binding	B3
no binding	B4

Biological target: T6, GST-PDZK1 fusion protein (PDZ domains …)
Assay: A/G assays

binding result	Binder
no binding	B1
no binding	B2
no binding	B3
no binding	B4

Biological target: T7, GEF PDZ-GST fusion protein
Assay: A/G assays

binding result	Binder
no binding	B1
no binding	B2
no binding	B3
no binding	B4

Biological target: T13, GST-TIAM1 PDZ domain fusion protein (Homo sapiens (Human), UniProt Q13009 845-931)
T13 construct: also called TLAM1; T-lymphoma invasion and metastasis inducing protein 1; not shown: glutathione S-transferase encoded by vector pGEX-3X (Pharmacia)
Assay: A/G assays

T13 sequence (Q13009 other isoform, or with tags, fused parts or gaps): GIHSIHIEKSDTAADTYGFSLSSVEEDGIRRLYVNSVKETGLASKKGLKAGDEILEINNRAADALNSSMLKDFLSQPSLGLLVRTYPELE

binding result	Binder
no binding	B1
no binding	B2
no binding	B3
no binding	B4

Biological target: T8, TAX-IP2L PDZ-GST fusion protein
Assay: A/G assays

binding result	Binder
no binding	B1
no binding	B2
no binding	B3
no binding	B4

Biological target: T9, GST-LIM protein PDZ domain fusion …
Assay: A/G assays

binding result	Binder
no binding	B1
no binding	B2
no binding	B3
no binding	B4

Biological target: T14, NSP PDZ-GST fusion protein (Homo sapiens (Human), UniProt Q92743 370-466)
T14 construct: The label NSP is not explained in the excerpts
Assay: A/G assays

T14 sequence (Q92743 other isoform, or with tags, fused parts or gaps limits assumed): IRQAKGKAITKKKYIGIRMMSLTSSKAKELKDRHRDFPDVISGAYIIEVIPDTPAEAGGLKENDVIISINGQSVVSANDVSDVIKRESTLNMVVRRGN

binding result	Binder
no binding	B1
no binding	B2
no binding	B3
no binding	B4

Biological target: T15, NOS1 PDZ-GST fusion protein (Homo sapiens (Human), UniProt P29475 11-100)
T15 construct: Order of GST and PDZ part and limits not seen in the excerpts
Assay: A/G assays

T15 sequence (P29475 11-100 limits assumed): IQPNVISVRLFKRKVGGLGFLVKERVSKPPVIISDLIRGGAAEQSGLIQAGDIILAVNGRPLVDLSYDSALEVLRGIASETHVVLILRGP

binding result	Binder
no binding	B1
no binding	B2
no binding	B3
no binding	B4

Biological target: T10, GST-TAX-IP40 PDZ domain fusion protein
Assay: A/G assays

binding result	Binder
no binding	B1
no binding	B2
no binding	B3
no binding	B4

Biological target: T11, MINT3 PDZ-GST fusion protein
Assay: A/G assays

binding result	Binder
no binding	B1
no binding	B2
no binding	B3
no binding	B4

Biological target: T12, KIAA0807 (PDZ domain)-GST fusion protein
Assay: A/G assays

binding result	Binder
no binding	B1
no binding	B2
no binding	B3
no binding	B4
